Data set [1] addresses T1, DmoB (Arthrobacter globiformis, UniProt H0QJX4).
T1 sequence (H0QJX4 1-171): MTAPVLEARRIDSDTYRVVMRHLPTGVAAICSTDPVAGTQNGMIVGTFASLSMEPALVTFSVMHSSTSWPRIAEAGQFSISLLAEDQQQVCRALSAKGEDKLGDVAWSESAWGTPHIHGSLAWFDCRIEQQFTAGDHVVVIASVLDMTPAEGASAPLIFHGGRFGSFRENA
Nature of the data set: fluorescence quenching titration of FMN with DmoB. The data set is classed as binding.

Substrate in data set [2]: Cc1cc2nc3c(=O)[nH]c(=O)nc-3n(C[C@H](O)[C@H](O)[C@H](O)COP(=O)(O)OP(=O)(O)OC[C@H]3O[C@@H](n4cnc5c(N)ncnc54)[C@H](O)[C@@H]3O)c2cc1C
Briefly: purified protein. As to conditions: 50 μM NADH, 20 mM PIPES, pH 7.4, 25 °C.

Substrate in data set [3]: Cc1cc2nc3c(=O)[nH]c(=O)nc-3n(C[C@H](O)[C@H](O)[C@H](O)COP(=O)(O)O)c2cc1C
Nature of the data set: purified protein. The settings on record: 50 μM NADH, 20 mM PIPES, pH 7.4, 25 °C.

Substrate in data set [4]: Cc1cc2nc3c(=O)[nH]c(=O)nc-3n(C[C@H](O)[C@H](O)[C@H](O)CO)c2cc1C
Briefly: purified protein. As to conditions: 50 μM NADH, 20 mM PIPES, pH 7.4, 25 °C.

Substrate in data set [5]: NC(=O)C1=CN([C@@H]2O[C@H](COP(=O)(O)OP(=O)(O)OC[C@H]3O[C@@H](n4cnc5c(N)ncnc54)[C@H](O)[C@@H]3O)[C@@H](O)[C@H]2O)C=CC1
Nature of the data set: purified protein. As to conditions: 50 μM FMN, 20 mM PIPES, pH 7.4, 25 °C.

The Kd is the equilibrium constant for the complex coming apart. By Km is commonly meant the concentration of substrate that gives half-maximal velocity. The term Vmax denotes the rate approached at saturating substrate. Usually kcat/Km stands for the turnover number divided by the Michaelis constant.

As to `Cc1cc2nc3c(=O)[nH]c(=O)nc-3n(C[C@H](O)[C@H](O)[C@H](O)COP(=O)(O)O)c2cc1C` [FMN], in data set [1], the Kd came to 1110 ± 710 nM.

B1: DmoB (Arthrobacter globiformis NBRC 12137) (protein)
chain: T1 sequence (H0QJX4 1-171)
For B1, the Michaelis-Menten constant (Km) in data set [2] was 84 ± 12 µM; in data set [3], 18 ± 5 µM; in data set [4], 142 ± 7 µM; in data set [5] it was 2.3 ± 0.5 µM. Besides, the maximum rate (Vmax) in data set [2] came out at 153 µmol/min/mg; in data set [3] it was 207 µmol/min/mg; in data set [4] it was 130 µmol/min/mg; in data set [5], 149 µmol/min/mg. Further, the kcat/Km came out at 583000 M⁻¹ s⁻¹ in data set [2], 3.72e+06 M⁻¹ s⁻¹ in data set [3], 283000 M⁻¹ s⁻¹ in data set [4] and 2.09e+07 M⁻¹ s⁻¹ in data set [5].

These data come from publication PMC7203701 (ACS Omega, 2020).
